The experiment has as its target lrrt2_human LRRTM2 (UniProt O43300).

lrrt2_human LRRTM2, sequence (O43300 whole entry): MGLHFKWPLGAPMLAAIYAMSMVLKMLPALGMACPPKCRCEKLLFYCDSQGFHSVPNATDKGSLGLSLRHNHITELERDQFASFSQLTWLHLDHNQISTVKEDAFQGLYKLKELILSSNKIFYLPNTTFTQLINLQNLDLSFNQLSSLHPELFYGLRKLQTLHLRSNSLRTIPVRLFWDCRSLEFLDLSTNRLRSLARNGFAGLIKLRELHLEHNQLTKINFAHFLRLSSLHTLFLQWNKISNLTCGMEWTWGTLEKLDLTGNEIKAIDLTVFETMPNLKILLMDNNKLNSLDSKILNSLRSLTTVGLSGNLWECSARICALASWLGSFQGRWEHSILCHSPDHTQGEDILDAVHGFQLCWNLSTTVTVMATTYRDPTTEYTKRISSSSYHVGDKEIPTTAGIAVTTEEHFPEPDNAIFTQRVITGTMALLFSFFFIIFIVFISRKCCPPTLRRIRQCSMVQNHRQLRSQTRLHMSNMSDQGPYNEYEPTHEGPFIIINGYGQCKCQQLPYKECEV
Neurexin-1-beta (Homo sapiens), P58400-1 D141A, sequence (P58400 other isoform, or with tags, fused parts or gaps D141A): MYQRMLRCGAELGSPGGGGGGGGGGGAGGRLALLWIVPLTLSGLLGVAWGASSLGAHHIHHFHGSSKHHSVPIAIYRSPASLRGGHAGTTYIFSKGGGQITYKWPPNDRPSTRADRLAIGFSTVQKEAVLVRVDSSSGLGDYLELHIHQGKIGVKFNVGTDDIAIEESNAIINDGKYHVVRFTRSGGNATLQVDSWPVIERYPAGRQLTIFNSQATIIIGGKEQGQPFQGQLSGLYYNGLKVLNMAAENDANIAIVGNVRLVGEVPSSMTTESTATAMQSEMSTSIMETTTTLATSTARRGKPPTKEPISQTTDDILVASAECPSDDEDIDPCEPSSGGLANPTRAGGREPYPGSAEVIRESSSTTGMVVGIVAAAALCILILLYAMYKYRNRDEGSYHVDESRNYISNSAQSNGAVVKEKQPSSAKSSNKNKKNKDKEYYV

Turning to “Neurexin-1-beta (Homo sapiens), P58400-1 D141A”, the “effect of a mutation on the interaction” value is “disrupting interaction strength”.

For the origin of these results see IntAct's records for PubMed 30262834.
